From paper PMC10039935, “Organic electrochemical transistors as on-site signal amplifiers for electrochemical aptamer-based sensing” come the findings set out here.

For the data set, the target named is TGF-β1 (transforming growth factor beta 1) (UniProt P01137 279-390). Description: electrochemical aptamer sensor (CV/SWV, signal-off) with OECT readout; 1 mM MgCl2 in aptamer folding; aptamer on Au with MCH backfill; 1x PBS (selectivity test in bare 1x PBS); aptamer folded and MCH backfill in 1x PBS with 1 mM MgCl2; assay pH and temperature not stated. Conditions: chain copies: 2; label: 5' methylene blue; 3' thiol on Au electrode; single strand, folded.
TGF-β1 (transforming growth factor beta 1), sequence (P01137 279-390): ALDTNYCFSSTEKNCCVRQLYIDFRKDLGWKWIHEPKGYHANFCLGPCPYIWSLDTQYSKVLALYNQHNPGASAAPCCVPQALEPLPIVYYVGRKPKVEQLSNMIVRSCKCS

B1: TGF-β1 aptamer (MB-modified) (XNA)
DNA: CGCTCGGCTTCACGAGATTCGTGTCGTTGTGTCCTGTACCCGCCTTGACCAGTCACTCTAGAGCATCCGGACTG
modifications: partial phosphorothioate, 5' side of some A and C, printed as * : CG*CTCGG*CTTC*ACG*AG*ATT*CGTGT*CGTTGTGT*C*CTGT*A*C*C*CG*C*CTTG*A*C*C*AGT*C*ACT*CT*AG*AGC*AT*C*CGG*A*CTG; 5' amino C6; 3' iSpC3 and thiol C3
For B1, the binding result was “binds”.
